Experimental data published in the nanobody polyreactivity screen of Harvey et al. (2022).

Assay: yeast display, Sf9 membrane polyspecificity reagent, FACS + sequencing; frameworks hold sequencing errors
Procedure, shortened: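 After 36–48 hours of galactose induction, yeast (Saccharomyces cerevisiae BJ5465) displaying a synthetic nanobody library were stained at 4 °C for 1 hour with 10% biotinylated, detergent-solubilized Sf9 membrane reagent. Streptavidin microbeads enriched the stained cells before FACS sorting into low and high (top ~1%) gates on anti-HA and streptavidin fluorescence. Each clone's polyreactivity label reflects its gate of origin.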

Sequence | polyreactivity (PSR sort gate)
QVQLVESGGALVQAGGSLRLSCAASGFFIFTYAMGWYRQAPGKERELVAAISSRGGSTYYADSVKGRFTISRDNAKNTVYLQMNRLKPEDTAVYYCAAQAYGRYPYGYWGHGTQVTVSS | high polyreactivity
QVQLVEAGGGLDQPGGSLRLSCAASGSTFYVNTRRWYIQAPGQELELVAAISSTGSSTYFADSVKGRFTISRDNAKNTVYLQMNSLKPEDTAVYYCAAESYRWWYLYDYYYWGQGTQVTVSS | high polyreactivity
QVQLVESGGGLVQAGGSLRLSCAASGSIFEYYTMGWYIPAPGKERECVAAITFTGDSTYYADSVKGRFTISRDNAKNTVFLQMNSLKPEDTAVYYCNADSVTYDGEYDYWGQGTQVTVSS | low polyreactivity
QVQLVESGGGLVQAGGSLRLSCAASGSIFYFNAMGWYRQAPGKERELVAAITYSGGSTYYADSVKGRFTISRDNAKNTVYLQMNSLKPEDTAVYYCNAQVYYSVRGYPYGYYRNDYWGQGTQVTVSS | low polyreactivity
QVQLVESGGGLVQAGGSLRLSCAASGSTFIFNAMGWYRQAPGKERELVAAISWRLGRTYYADSVKGRFTISRDNAKKTVYLQMNSLKPEDTAVYYCARDYSRHKGDYWGQGTQVTVSS | low polyreactivity
QVQLVESGGGLVQAGGSLRLSCAASGLIFVANTMGWYRQATGKERELVAAITSDGGSTSYADSVKGRFTISRDNAKNTVYLQMNSLKPEDTAVYHCAAEYGGSSAKYGYWGQGTQVTVSS | low polyreactivity
QVQLVESGGRKVQAGGSLRLSCAASGYTSSRYAMGRYRPAPGKERELVAAISGTGGSTNYADSVKGRFTISRDNAKNNVYLQKNSLKPEDTAVYYCAKRSRTYGTSPYYYWGQGTQVSVSS | high polyreactivity
QVLLVESGGGLVQAGGSLRISCAASGRISSRNAMGWYRQAPGKERELVAGITSGGSTNYADSLKGRFTISRDNAKNTVYLQMNSLKPEDTAVYYCAKRSRTYRYGYDYWGQGTQVTVSS | high polyreactivity
QVQLVESGGGLVQAGGSLRLSCGASGIIFASNGMGWYRQAPGKERELVAAISSGGSTNYADSVKGRFTISRDNAKNTVYLQMNSLKPEDTSVYYCAADRWYREYDYWGQATQVTVSS | low polyreactivity
QVQLVEKGGGLVQAGGSLRLSCAASGRTFRSNAMGWYRQAPGKERELVAAIRSRGGSTYYADSVKGRFTISRDNAKNTVYLQMNSLKPEDTAVYYCAAKHGSTSHDSWGQGTQVTVSS | high polyreactivity
QDQLVESGGGLVQAGGSLRLSCAASGITFYTYAMGWSRQAPGKERELVAAISRSGGSTYYADSVKGRITISRDNAKYTVYLQMNSLKPEDSAVYYCAAVYRGRDMDYWGLGTQVTVSS | high polyreactivity
QVQLVESGGGLVQAGGSLRLSCAASGRTLSAYAMGWYRQAPGKERELVAALRWRGGSTVYAASVKGRFTISRDNAKNPVYLQMHSLKPADTAVYYCNALPGNRRTVYYWGQGTQVTVSS | high polyreactivity
QVQLVESGGGLVQAGGSLRLSCAASGRIFDYNTMGWYRQAPGKEREFVAAITSSGGRTYYADSVKGRFTISRDNAKNTVYLQMNSLKPEDTAVYYCAARLNIYYRRMGYWGQGTQVTVSS | high polyreactivity
QGQLVESGGCLVQAGGSLRLSCAASGRTFYRNAMCLYRQSPGKERELVAVISSSGVRTYYADSVKGRFTISRDNAKNTVYLQMNSLKPEDTAVYYCAADSNSYYRGFDYWGQGTQVTVSS | high polyreactivity
QVQLVESGGGLVQAGGSLRLSCAASGSTFFGYTMGWYRQARGKERELVAAITRRGGSTYYADSVKGRFTISRDNAKNTVYLQLNSLKPEDTAVYYCNAVSKSTNYAGRYDYWGQATQVTVSS | high polyreactivity
QVQLVESGGGLVQAGGSLRLSCAASGFIFGRYTMGWYSQAPGKERELVAAISSRGGSTYYADSVKGRFTISRDNAKNTVYLQMNSLKPEDTAVYYCAADEIYGYDYWGQGTQVTVSS | high polyreactivity
QVQLVESGGCLVQAGGSLRLICAASGLIFTGNAMGWYRQAPGKERELVAAINYSGGSTYYADSVKWRFTISRDNAKNTVSLQLNSLKAEDTAVYYCAAGGKSRSYYWGQGTQVTVSS | high polyreactivity
QVQLEESGRGLVQAGGSLRLSCAASVSTCCENAMGWYRQAPGKERELVAAISWGGGSKYYADSVKGRFTISRDNAMNTVYLQMNSLKQEDTAVYYCNADVFDDYGYFESDYWGQGTQVTVSS | low polyreactivity
QVQLVESGGGLVQAGGSLRLSCAASGFIFSWYAMGWYRQAPGKERELVAAITSGGSTYYADSVKGRFTISRDNAKNTFYLQMNSLKPEDTAVYYCGTVVTYRYAFPYGYWGQGTQVTVSS | high polyreactivity
QVQLVESGGGLVQAGGSLRLSCAASGSTFFDYAMGWYRQAPGKERELVAAISRSGDTNYADSVKGRFTISRDNAKNTVYLQMNSLKPEDTAVYYCAKDWAYRRHWVGFYYWGQGTQVTVSS | low polyreactivity
QVQLVESGGGLVQAGGSLRLTCAASGGIFYKYAKGWYRQAPGKEMELVAAITGRGGSTNYADSVKVRFTISRDNAKNTVYLQMNSLKPEDTAVYYCAARYTPTWSYGYWGQGTQVTVSS | low polyreactivity
QVQLVESGGGLVQAGGSLRLSCAASGRTFRINAMGWYRQAPGKERELVAAISFRTDSTYYADSVKGRFTISRDNAKNTVYLQMNSLKPEDTAVYYCDARGLQVRTYDYWGQGTQVTVSS | high polyreactivity

Sequence | polyreactivity (PSR sort gate)
QVQLVESGGGLVQAGGSLRLSCAASGFIFGSYAMGWYRQAPGKERELVAAITRSGGNTYYADSVKVRFTISRDNAKNTVYLQMNSLKPEDTAVYYCAAYSGYWYDYWGQGTQVTVSS | high polyreactivity
QVQLVESGGGLVQAGGSLRLSCAASGRTFSRNAMGWYRQAPGKERELVAAISWSGARTYYADSVKGRFTISRDNAKNTVYLQMNSLKPEDTAVYYCAARVPSWKYDYWGQGTQVTVSS | high polyreactivity
QVQLEESGGCLVQAGGSLRLSCAASGITFYGNVMGWYRQAPGKERELVAAISWSGGRTYYADSVKGRFTISRDNAKNTVSVQMNSLKPEDTAVDFCAAEGTTNRGVYASYDYWGQGTQVTVSS | low polyreactivity
QVQLVESGGGLVQAGGSLRLSCAASGFIFRSYAMGWYRQAPGKERELVAAISFSGGRTYYADSVKGRFTISRDNAKNTVYLQMNSLKPEDTAVYYCAAVPARIGVVLHIYTDSHYDYWGQGTQVTVSS | low polyreactivity
QVQLVESGGGLVQAGGSLRLSCAASGRIFKDHAMGWYRQAPGKERELVAGITSIGDNTYYADSVKGRFTISRDNAKNTVYLQMNSLKPEHTAVYYCNADYGYDSVVEYDYWGQGTQVTVSS | low polyreactivity
QVQRVESGGGLVQAGGSLRLSCPASGFTFSRNVMGWYRQAPGKERELVADITLSGASTYYADSVKGRFTISRDNAKNTVYLQMNSLKPEDTAVYYCAADPYHWRWGWRHDYWGQGTQVTVSS | low polyreactivity
QVQLVEAGGGLVQAGGSLRLSCAASGSIFGYYAMGWYRQAPGKERELVAAISYRGGSTYYADSVKGRFTISRDNAKNTVYLQMNSLKPEDTAVYYCNAGGRRRIFAHSSTGDYWGQGTQVTVSS | high polyreactivity
QVQLVESGGGLVQAGGSLPLSCAASGNTFYNYAMGWYRQAPGKERELVAAISLSGGSTYYADSVKGRFTISRDNAKNTVYLQMNSLKPEDTAVYYCAADIFYYSSSYGYWGQGTQVTVSS | low polyreactivity
QVQLVESGGGLVQAGGSLRLSCAASGIHFRSNAMGWYRQAPGKERELVAAISGRGGRTYYADSVKGRFTISRDNAKNTVYLQMNSLKPEDTAVYYCARESYLGATYPKAYGPYYYWGQGTQVTVSS | high polyreactivity
QVQLVESGGGLVQAGGSLRLSCAASGFTFYKYVMGWYRQAPGKERELVAAITQGGGSTYYADSVKGRFTISRDNAKNTVYLQMNSLKPEDTAVYYCNARNGYGIGYWGQGTQVTVSS | high polyreactivity
QVQLVESGGGLVNAGGSLRLSCAASGITLVVYGMGWYRQAPGKETELVAAMTSGGRTYYADSVTGRFTISRDNAKNTVYLQMNSLKPEDTAVYYCAADRYFRQYGRYYYWGQGTQVTVSS | high polyreactivity
QVQLVDSGGGLDQAGGSLRLSCAASGRIFGLYAMVWYRTAPGKEKELVAHIDVSDGSTYYADSVKGRFTISLDTAKNTVYLQMNRLKPEDTAVYYCNAEDSSRWYDWYLHDYWGQGTQVTVSS | high polyreactivity
QVQLVESGGGLVQAGGSLRLSCAASGRTFTGNAMGWYRQAPGKERELVAAISTSGTRTSYADSVKGRFTISRDNAKNTVYLQMNSLKPEDTAVYYCAALRKSLYRTYTYDYWGQGTQVTVSS | high polyreactivity
QLQLVESGGGLVQAGCSLRLICAASGFTFYRNAMGWYRQAPGKEREFVAAISSSGGGTYYADSVKGRFTISRDNAKNTVYLQMNSLKPDDTAVYYCAAKYPQKTTVNSYGNSFYYWGQGTQVTVSS | high polyreactivity
QVQLVESGGGLVQAGGSLRLSCAASGFIFRSYAMGWYRQAPGKERELVAAITKSGGRTYYADSVKGRFTISRDNAKNTVYLQMNSLKPEDSAVYYCAADQTSYSTSRRYDYWGQGTQVTVSS | high polyreactivity
QVQLVESGGGLVQAGGSLRLSCAASGITFSYYAMGWYRQAPGKERELVAVISRRGGTTYYADSVKGRFTISRDNAKNTVYLQMNSLKPEDTAVYYCAATYISVLGYEYWGQGTQVTVSS | high polyreactivity
QVQLVESGGGLVQAGGSLRLSCAASGLIFRHYVMGWYRQAPGKETELVAAITSRGGTTYYADSVKGRFTISRDNAKNTVYIQMNSLKPEDTAVYYCNAVDIYPTRYEYDYWGQGTQVTVSS | high polyreactivity
QVQLVESGGGIVQAGGSLRLSCAASGFIFRYYAMGWYRHAPGKESELVATITRSGGSTYYADSVKGRFTISRDNAKNTVYLQMNSLKPEDTAVYYCAADIYWYRGYGYWGQGTQVTVSS | high polyreactivity
QVQLVESGGGLVQAGGSLRLSCAASGFTFRSYAMGWYRQAPGKERELVAAISSGGSTYYADSVKGRFTISRDNAKNTVYLQMNSLKPEDTAVYYCAARRYYGYGHWGQGTQVNVSS | high polyreactivity
QVQLVESGGGLDQAGGSLRLSCAASGRIGYYAMGWYRQAPGKETELVAAISYGGGSTYYADSVKGRFTISRDNAKNTVYLQLNSLKPEDTAVYYCAARWGKSWRGYGYWGQGTLVTVSS | high polyreactivity
QVQLVESGGGLVQAGGSLRLSCAASGSIFAYNAMGWYRQAPGKERELVATINWIGGRTYYADSVKGRFTISRDNAKNTVYLQMNSLKPEDTAVYYCAKERWYLGVSNGHVLVDYDHWGQGTQVTVSS | low polyreactivity
